Experimental data: patent publication US20230053493A1, “ONE STEP METHODS, KITS, AND SYSTEMS FOR THE MEASUREMENT OF CONCENTRATIONS OF UNBOUND BILIRUBIN IN BIOLOGICAL FLUIDS” (priority 2019, published 2023)

Test: Calibration of free NIR probe/sensor by bilirubin titration (cuvette fluorometry, fit with equation 1)
Assay type: binding
Details: for Qs (Rm/Ro): degree to which the probe is quenched by bilirubin binding, effect of fluorophore position
Excerpt: Embodiments provided herein are directed to methods of calibrating the bilirubin probes by mixing in an aqueous media the sensor with samples of bilirubin of increasing total bilirubin concentrations (BT), measuring the ratio of fluorescence intensities R of the sensor at each concentration, and determining the calibration parameters (Kd, Rm, and Ro) from the measured fluorescence by fitting with the equation (1), wherein R is the measured fluorescence ratio (Iλ1/Iλ2), where hi is the fluorescence intensity from the first fluorophore at wavelength λ1 and Iλ2 is the fluorescence intensity from the second fluorophore at wavelength λ2, both λ1 and λ2 have background subtracted, and Ro is the ratio in the absence of bilirubin. BT is the total bilirubin concentration and PT is the concentration of the sensor, r is the Iλ2/Iλ1 ratio of the bilirubin sensitive probe's fluorescence in the absence of the second fluorophore, Kd is the equilibrium dissociation constant of the sensor and Rm is the ratio R extrapolated to infinite BT. Equation (1) is used in some embodiments rather than equation (5) of U.S. Pat. No. 9,529,003 when Rm is >0.
Also described are methods for calibrating and using a bilirubin sensor described herein so that Bf concentrations can be determined in approximately 5 μl of undiluted blood samples in a single step. These small volume blood samples are applied to the disposable plastic microfluidic cartridges containing the dried bilirubin ratio sensor. The bilirubin sensor containing cartridges are preferably used for a single measurement and the calibration parameters (Kd, Rm, Ro) must be determined within a “lot” of identically manufactured cartridges. The calibration is performed by titrating a sufficient number of cartridges with aqueous samples of increasing well-defined Bf levels. Because plastics bind unbound bilirubin and because surface to volume ratio in the microfluidics channel is large, the calibration Bf samples must be highly buffered by complexes with albumin. The Bf concentrations of each complex are determined by measuring each by cuvette fluorometry using a calibrated sensor free in aqueous solutions. The free sensor is calibrated by titration with aqueous solutions of bilirubin where the concentrations of these unbound bilirubin solutions are determined by absorbance. The free probe's response (R values versus Bf concentrations) are used to determine the free sensor's calibration (Kd, Rm, Ro) (equation 1). The calibrated free sensor mixed with samples of each of the BR:HSA complexes is used to determine the Bf concentrations of each complexes by cuvette fluorometry using equation 2. These calibrated complexes are used to determine the binding parameters of the disposable cartridges including the equilibrium dissociation constant (Kd), the minimum fluorescence ratio (Rm) and the initial ratio (Ro) under defined conditions, of temperature, pH, and solution composition, suitable for blood samples. Binding isotherms are performed in aqueous buffer by measuring the change in fluorescence of the bilirubin sensor in response to increasing bilirubin concentrations (“titration data”). The set of fluorescence responses at each bilirubin concentration are fitted with an appropriate equation (“calibration equation (3)”) that correctly describes the fluorescence response as a function of the Bf concentration, the, specific spectroscopic characteristics, and the Kd.
All responder probes labeled with LICOR 700DX-maleimide and non-responder probes labeled with LICOR 800CW-maleimide probes in Tables 1 and 2, respectively have qualitatively similar dependencies on Bf. The probes differ mostly in protein expression, binding parameters (Kd, Ro and Rm) and stability. […] Although the non-responders are not characterized by bilirubin binding parameters, the emission spectrum of the 800CW-maleimide is sensitive to specific substitutions that can alter the LICOR 700DX-maleimide intensities. […]

[1] = effect of fluorophore (cysteine) position, responder probe labeled with 700DX-maleimide
[2] = free Bf sensor, fit of equation 1 (FIG. 2)

Molecule | Kd [1] [nM] | Kd (free Bf sensor with non-responder Mut:SEQ ID NO:1 B-73C in aqueous buffer, excitation 660 nm, 700/805 ratio, fit of equation 1 (FIG. 2)) [nM] | Qs (Rm/Ro) | Qs which is Rm/Ro [2] | Rm [2] | Ro [2]
76C-C2XH11-700DXM: rIFABP mutein MGI-KR14-14R 18L 27A 38V 60R 73F 76C 106L 115R 117D 131D-C2XH11 labeled with LICOR 700DX-maleimide (protein, LICOR 700DX-maleimide label; mutated bf sensitive probe, rIFABP mutein MGI-KR14-14R 18L 27A 38V 60R 73F 76C 106L 115R 117D 131D-C2XH11 labeled with LICOR 700DX-maleimide) MGIAFDGTWRVDRNENRERFLERMGINVVARRLGAHDNLRVTITQEGNRFTVRESSNFRNIDRVFELGVDFAYSLFDGCELTGTWTMEGNRLVGRFRRVDNGRELIAVLEISGNELIRTDTYEGVEARRIFRRDRGAASHHHHHHSHRATPNTSPHHHHHHH | 14 | 12.4 ± 0.4 | 0.04 | 0.139±0.007 | 0.42 | 3.02
54C-C2XH11-700DXM: rIFABP mutein MGI-KR14-14R 18L 27A 38V 54C 60R 73F 106L 115R 117D 131D-C2XH11 labeled with LICOR 700DX-maleimide (protein, C2XH11 tag; LICOR 700DX-maleimide label; mutated bf sensitive probe, rIFABP mutein MGI-KR14-14R 18L 27A 38V 54C 60R 73F 106L 115R 117D 131D-C2XH11 labeled with LICOR 700DX-maleimide) MGIAFDGTWRVDRNENRERFLERMGINVVARRLGAHDNLRVTITQEGNRFTVRESSCFRNIDRVFELGVDFAYSLFDGTELTGTWTMEGNRLVGRFRRVDNGRELIAVLEISGNELIRTDTYEGVEARRIFRRDRGAASHHHHHHSHRATPNTSPHHHHHHH | 22 | – | 0.48 | – | – | –
74C-C2XH11-700DXM: rIFABP mutein MGI-KR14-14R 18L 27A 38V 60R 73F 74C 106L 115R 117D 131D-C2XH11 labeled with LICOR 700DX-maleimide (protein, C2XH11 tag; LICOR 700DX-maleimide label; mutated bf sensitive probe, rIFABP mutein MGI-KR14-14R 18L 27A 38V 60R 73F 74C 106L 115R 117D 131D-C2XH11 labeled with LICOR 700DX-maleimide) MGIAFDGTWRVDRNENRERFLERMGINVVARRLGAHDNLRVTITQEGNRFTVRESSNFRNIDRVFELGVDFAYSLFCGTELTGTWTMEGNRLVGRFRRVDNGRELIAVLEISGNELIRTDTYEGVEARRIFRRDRGAASHHHHHHSHRATPNTSPHHHHHHH | 16 | – | 0.15 | – | – | –
29C-C2XH11-700DXM: rIFABP mutein MGI-KR14-14R 18L 27A 29C 38V 60R 73F 106L 115R 117D 131D-C2XH11 labeled with LICOR 700DX-maleimide (protein, C2XH11 tag; LICOR 700DX-maleimide label; mutated bf sensitive probe, rIFABP mutein MGI-KR14-14R 18L 27A 29C 38V 60R 73F 106L 115R 117D 131D-C2XH11 labeled with LICOR 700DX-maleimide) MGIAFDGTWRVDRNENRERFLERMGINVVARCLGAHDNLRVTITQEGNRFTVRESSNFRNIDRVFELGVDFAYSLFDGTELTGTWTMEGNRLVGRFRRVDNGRELIAVLEISGNELIRTDTYEGVEARRIFRRDRGAASHHHHHHSHRATPNTSPHHHHHHH | 29 | – | 0.52 | – | – | –
24C- C2XH11-700DXM: rIFABP mutein MGI-KR14-14R 18L 24C 27A 38V 60R 73F 106L 115R 117D 131D-C2XH11 labeled with LICOR 700DX-maleimide (protein, C2XH11 tag; LICOR 700DX-maleimide label; mutated bf sensitive probe, rIFABP mutein MGI-KR14-14R 18L 24C 27A 38V 60R 73F 106L 115R 117D 131D-C2XH11 labeled with LICOR 700DX-maleimide) MGIAFDGTWRVDRNENRERFLERMGICVVARRLGAHDNLRVTITQEGNRFTVRESSNFRNIDRVFELGVDFAYSLFDGTELTGTWTMEGNRLVGRFRRVDNGRELIAVLEISGNELIRTDTYEGVEARRIFRRDRGAASHHHHHHSHRATPNTSPHHHHHHH | 44 | – | 0.14 | – | – | –

Continued by falling Kd [1], values first:

Kd [1] [nM] | Kd (free Bf sensor with non-responder Mut:SEQ ID NO:1 B-73C in aqueous buffer, excitation 660 nm, 700/805 ratio, fit of equation 1 (FIG. 2)) [nM] | Molecule | Qs (Rm/Ro) | Qs which is Rm/Ro [2] | Rm [2] | Ro [2]
41 | – | 30C-C2XH11-700DXM: rIFABP mutein MGI-KR14-14R 18L 27A 30C 38V 60R 73F 106L 115R 117D 131D-C2XH11 labeled with LICOR 700DX-maleimide (protein, C2XH11 tag; LICOR 700DX-maleimide label; mutated bf sensitive probe, rIFABP mutein MGI-KR14-14R 18L 27A 30C 38V 60R 73F 106L 115R 117D 131D-C2XH11 labeled with LICOR 700DX-maleimide) MGIAFDGTWRVDRNENRERFLERMGINVVARRCGAHDNLRVTITQEGNRFTVRESSNFRNIDRVFELGVDFAYSLFDGTELTGTWTMEGNRLVGRFRRVDNGRELIAVLEISGNELIRTDTYEGVEARRIFRRDRGAASHHHHHHSHRATPNTSPHHHHHHH | 0.11 | – | – | –
25 | – | 97C-C2XH11-700DXM: rIFABP mutein MGI-KR14-14R 18L 27A 38V 60R 73F 97C 106L 115R 117D 131D-C2XH11 labeled with LICOR 700DX-maleimide (protein, LICOR 700DX-maleimide label; mutated bf sensitive probe, rIFABP mutein MGI-KR14-14R 18L 27A 38V 60R 73F 97C 106L 115R 117D 131D-C2XH11 labeled with LICOR 700DX-maleimide) MGIAFDGTWRVDRNENRERFLERMGINVVARRLGAHDNLRVTITQEGNRFTVRESSNFRNIDRVFELGVDFAYSLFDGTELTGTWTMEGNRLVGRFRRVCNGRELIAVLEISGNELIRTDTYEGVEARRIFRRDRGAASHHHHHHSHRATPNTSPHHHHHHH | 0.29 | – | – | –
25 | – | 33C-C2XH11-700DXM: rIFABP mutein MGI-KR14-14R 18L 27A 33C 38V 60R 73F 106L 115R 117D 131D-C2XH11 labeled with LICOR 700DX-maleimide (protein, C2XH11 tag; LICOR 700DX-maleimide label; mutated bf sensitive probe, rIFABP mutein MGI-KR14-14R 18L 27A 33C 38V 60R 73F 106L 115R 117D 131D-C2XH11 labeled with LICOR 700DX-maleimide) MGIAFDGTWRVDRNENRERFLERMGINVVARRLGACDNLRVTITQEGNRFTVRESSNFRNIDRVFELGVDFAYSLFDGTELTGTWTMEGNRLVGRFRRVDNGRELIAVLEISGNELIRTDTYEGVEARRIFRRDRGAASHHHHHHSHRATPNTSPHHHHHHH | 0.17 | – | – | –
21 | – | 26C-C2XH11-700DXM: rIFABP mutein MGI-KR14-14R 18L 26C 27A 38V 60R 73F 106L 115R 117D 131D-C2XH11 labeled with LICOR 700DX-maleimide (protein, C2XH11 tag; LICOR 700DX-maleimide label; mutated bf sensitive probe, rIFABP mutein MGI-KR14-14R 18L 26C 27A 38V 60R 73F 106L 115R 117D 131D-C2XH11 labeled with LICOR 700DX-maleimide) MGIAFDGTWRVDRNENRERFLERMGINVCARRLGAHDNLRVTITQEGNRFTVRESSNFRNIDRVFELGVDFAYSLFDGTELTGTWTMEGNRLVGRFRRVDNGRELIAVLEISGNELIRTDTYEGVEARRIFRRDRGAASHHHHHHSHRATPNTSPHHHHHHH | 0.36 | – | – | –
13 | – | 98C-C2XH11-700DXM: rIFABP mutein MGI-KR14-14R 18L 27A 38V 60R 73F 98C 106L 115R 117D 131D-C2XH11 labeled with LICOR 700DX-maleimide (protein, LICOR 700DX-maleimide label; mutated bf sensitive probe, rIFABP mutein MGI-KR14-14R 18L 27A 38V 60R 73F 98C 106L 115R 117D 131D-C2XH11 labeled with LICOR 700DX-maleimide) MGIAFDGTWRVDRNENRERFLERMGINVVARRLGAHDNLRVTITQEGNRFTVRESSNFRNIDRVFELGVDFAYSLFDGTELTGTWTMEGNRLVGRFRRVDCGRELIAVLEISGNELIRTDTYEGVEARRIFRRDRGAASHHHHHHSHRATPNTSPHHHHHHH | 0.03 | – | – | –
12 | – | 25C-C2XH11-700DXM: rIFABP mutein MGI-KR14-14R 18L 25C 27A 38V 60R 73F 106L 115R 117D 131D-C2XH11 labeled with LICOR 700DX-maleimide (protein, C2XH11 tag; LICOR 700DX-maleimide label; mutated bf sensitive probe, rIFABP mutein MGI-KR14-14R 18L 25C 27A 38V 60R 73F 106L 115R 117D 131D-C2XH11 labeled with LICOR 700DX-maleimide) MGIAFDGTWRVDRNENRERFLERMGINCVARRLGAHDNLRVTITQEGNRFTVRESSNFRNIDRVFELGVDFAYSLFDGTELTGTWTMEGNRLVGRFRRVDNGRELIAVLEISGNELIRTDTYEGVEARRIFRRDRGAASHHHHHHSHRATPNTSPHHHHHHH | 0.27 | – | – | –
